From the supplement of paper PMC5998384 come the findings set out here.

In data set [1] the test system is HeLa Kyoto. The experiment in a line: solubility change mitosis vs G1/S (difference of NP-40 vs SDS log2 ratios) (log2 ratio difference); higher = more soluble in mitosis.
The subject of data set [2] is HeLa Kyoto. Briefly: solubility in G1/S (NP-40 vs SDS abundance) (log2 ratio); higher = more soluble. The conditions noted are these: cell cycle stage: G1/S.
Data set [3] relates to HeLa Kyoto. The experiment in a line: thermal stability score vs G1/S (z-score of summed log2 fold changes over temperatures); higher = more thermally stable than in G1/S.
For data set [4], the system named is HeLa Kyoto. The experiment in a line: melting temperature (median over replicates), in situ; higher = more thermally stable.
Setting [5] is: cell cycle stage: early G1 (4.5 h after nocodazole release).
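For melting temperature (median over replicates), in situ in this document: HeLa Kyoto cells synchronized by double thymidine or nocodazole block, proteins quantified by TMT10plex mass spectrometry, three independent biological replicates.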
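For solubility change mitosis vs G1/S (difference of NP-40 vs SDS log2 ratios) in this document: synchronized HeLa Kyoto cells (double thymidine block for G1/S, nocodazole release for mitosis), protein amounts in NP-40 versus SDS lysates quantified by mass spectrometry, three biological replicates.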
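For solubility in G1/S (NP-40 vs SDS abundance) in this document: HeLa Kyoto cells arrested at G1/S by double thymidine block, proteins quantified by TMT10plex mass spectrometry in mild NP-40 versus SDS extracts, three biological replicates.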
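For thermal stability score vs G1/S (z-score of summed log2 fold changes over temperatures) in this document: synchronized HeLa Kyoto cells, proteins quantified by TMT10plex mass spectrometry, three biological replicates, mitosis taken 0.5 h after nocodazole release, G1/S directly after double thymidine block.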

In the case of “MDFNMKKLASDAGIFFTRAVQFTEEKFGQAEKTELDAHFENLLARADSTKNWTEKILRQTEVLLQPNPSARVEEFLYEKLDRKVPSRVTNGELLAQYMADAASELGPTTPYGKTLIKVAEAEKQLGAAERDFIHTASISFLTPLRNFLEGDWKTISKERRLLQNRRLDLDACKARLKKAKAAEAKATTVPDFQETRPRNYILSASASALWNDEVDKAEQELRVAQTEFDRQAEVTRLLLEGISSTHVNHLRCLHEFVKSQTTYYAQCYRHMLDLQKQLGRFPGTFVGTTEPASPPLSSTSPTTAAATMPVVPSVASLAPPGEASLCLEEVAPPASGTRKARVLYDYEAADSSELALLADELITVYSLPGMDPDWLIGERGNKKGKVPVTYLELLS [SH3GLB2]”, in data set [1], the “solubility change mitosis (log2)” value is -0.0988. Further, the “solubility in G1/S (log2)” value in data set [2] amounted to 0.445. Further, the thermal stability score in data set [3] (setting [5]) was -1.15; in data set [3] (cell cycle stage: mitosis), 0.211. The results for the melting temperature in data set [4] (cell cycle stage: G1/S) and in data set [4] (cell cycle stage: mitosis) were 49.7 °C and 50.1 °C, respectively.

With “MDFSKFLADDFDVKEWINAAFRAGSKEAASGKADGHAATLVMKLQLFIQEVNHAVEETSHQALQNMPKVLRDVEALKQEASFLKEQMILVKEDIKKFEQDTSQSMQVLVEIDQVKSRMQLAAESLQEADKWSTLSADIEETFKTQDIAVISAKLTGMQNSLMMLVDTPDYSEKCVHLEALKNRLEALASPQIVAAFTSQAVDQSKVFVKVFTEIDRMPQLLAYYYKCHKVQLLAAWQELCQSDLSLDRQLTGLYDALLGAWHTQIQWATQVFQKPHEVVMVLLIQTLGALMPSLPSCLSNGVERAGPEQELTRLLEFYDATAHFAKGLEMALLPHLHEHNLVKVTELVDAVYDPYKPYQLKYGDMEESNLLIQMSAVPLEHGEVIDCVQELSHSVNKLFGLASAAVDRCVRFTNGLGTCGLLSALKSLFAKYVSDFTSTLQSIRKKCKLDHIPPNSLFQEDWTAFQNSIRIIATCGELLRHCGDFEQQLANRILSTAGKYLSDSCSPRSLAGFQESILTDKKNSAKNPWQEYNYLQKDNPAEYASLMEILYTLKEKGSSNHNLLAAPRAALTRLNQQAHQLAFDSVFLRIKQQLLLISKMDSWNTAGIGETLTDELPAFSLTPLEYISNIGQYIMSLPLNLEPFVTQEDSALELALHAGKLPFPPEQGDELPELDNMADNWLGSIARATMQTYCDAILQIPELSPHSAKQLATDIDYLINVMDALGLQPSRTLQHIVTLLKTRPEDYRQVSKGLPRRLATTVATMRSVNY [COG7]”, the “solubility change mitosis (log2)” value in data set [1] is -0.0565. Also, the “solubility in G1/S (log2)” value in data set [2] is 0.165. Besides, the thermal stability score in data set [3] (setting [5]) stood at 0.766; in data set [3] (cell cycle stage: mitosis), 1.31. Besides, the values for the melting temperature in data set [4] (cell cycle stage: G1/S) and in data set [4] (cell cycle stage: mitosis) were 48.8 °C and 48.7 °C, respectively.

With “MDGAAGPGDGPAREALQSLSQRLRVQEQEMELVKAALAEALRLLRLQVPPSSLQGSGTPAPPGDSLAAPPGLPPTCTPSLVSRGTQTETEVELKSSPGPPGLSNGPPAPQGASEEPSGTQSEGGGSSSSGAGSPGPPGILRPLQPPQRADTPRRNSSSSSSPSERPRQKLSRKAISSANLLVRSGSTESRGGKDPLSSPGGPGSRRSNYNLEGISVKMFLRGRPITMYIPSGIRSLEELPSGPPPETLSLDWVYGYRGRDSRSNLFVLRSGEVVYFIACVVVLYRPGGGPGGPGGGGQRHYRGHTDCVRCLAVHPDGVRVASGQTAGVDKDGKPLQPVVHIWDSETLLKLQEIGLGAFERGVGALAFSAADQGAFLCVVDDSNEHMLSVWDCSRGMKLAEIKSTNDSVLAVGFNPRDSSCIVTSGKSHVHFWNWSGGVGVPGNGTLTRKQGVFGKYKKPKFIPCFVFLPDGDILTGDSEGNILTWGRSPSDSKTPGRGGAKETYGIVAQAHAHEGSIFALCLRRDGTVLSGGGRDRRLVQWGPGLVALQEAEIPEHFGAVRAIAEGLGSELLVGTTKNALLRGDLAQGFSPVIQGHTDELWGLCTHPSQNRFLTCGHDRQLCLWDGESHALAWSIDLKETGLCADFHPSGAVVAVGLNTGRWLVLDTETREIVSDVIDGNEQLSVVRYSPDGLYLAIGSHDNVIYIYSVSSDGAKSSRFGRCMGHSSFITHLDWSKDGNFIMSNSGDYEILYWDVAGGCKQLKNRYESRDREWATYTCVLGFHVYGVWPDGSDGTDINSLCRSHNERVVAVADDFCKVHLFQYPCARAKAPSRMYGGHGSHVTSVRFTHDDSHLVSLGGKDASIFQWRVLGAGGAGPAPATPSRTPSLSPASSLDV [EML3]”, the “solubility change mitosis (log2)” value in data set [1] was -0.215. In addition, the “solubility in G1/S (log2)” value in data set [2] was determined as 0.0248. Moreover, the thermal stability score in data set [3] (setting [5]) was -0.497; in data set [3] (cell cycle stage: mitosis) it was 0.0727. The results for the melting temperature in data set [4] (cell cycle stage: G1/S) and in data set [4] (cell cycle stage: mitosis) were 51.6 °C and 52 °C, respectively.

Regarding “MDGDGDPESVGQPEEASPEEQPEEASAEEERPEDQQEEEAAAAAAYLDELPEPLLLRVLAALPAAELVQACRLVCLRWKELVDGAPLWLLKCQQEGLVPEGGVEEERDHWQQFYFLSKRRRNLLRNPCGEEDLEGWCDVEHGGDGWRVEELPGDSGVEFTHDESVKKYFASSFEWCRKAQVIDLQAEGYWEELLDTTQPAIVVKDWYSGRSDAGCLYELTVKLLSEHENVLAEFSSGQVAVPQDSDGGGWMEISHTFTDYGPGVRFVRFEHGGQDSVYWKGWFGARVTNSSVWVEP [FBXO2]”, the “solubility change mitosis (log2)” value in data set [1] was -0.206. The “solubility in G1/S (log2)” value in data set [2] was -0.047. In addition, the values for the thermal stability score in data set [3] (setting [5]) and in data set [3] (cell cycle stage: mitosis) were 0.487 and -0.484, respectively. Also, the values for the melting temperature in data set [4] (cell cycle stage: G1/S) and in data set [4] (cell cycle stage: mitosis) were 51.9 °C and 50.8 °C, respectively.

Take “MDGETAEEQGGPVPPPVAPGGPGLGGAPGGRREPKKYAVTDDYQLSKQVLGLGVNGKVLECFHRRTGQKCALKLLYDSPKARQEVDHHWQASGGPHIVCILDVYENMHHGKRCLLIIMECMEGGELFSRIQERGDQAFTEREAAEIMRDIGTAIQFLHSHNIAHRDVKPENLLYTSKEKDAVLKLTDFGFAKETTQNALQTPCYTPYYVAPEVLGPEKYDKSCDMWSLGVIMYILLCGFPPFYSNTGQAISPGMKRRIRLGQYGFPNPEWSEVSEDAKQLIRLLLKTDPTERLTITQFMNHPWINQSMVVPQTPLHTARVLQEDKDHWDEVKEEMTSALATMRVDYDQVKIKDLKTSNNRLLNKRRKKQAGSSSASQGCNNQ [MAPKAPK3]”: in data set [1], the “solubility change mitosis (log2)” value is -0.141. For the same sequence, the “solubility in G1/S (log2)” value in data set [2] was 0.454. In addition, the thermal stability score was determined as 0.292 in data set [3] (setting [5]) and 1.45 in data set [3] (cell cycle stage: mitosis). In addition, the melting temperature in data set [4] (cell cycle stage: G1/S) worked out at 49.1 °C; in data set [4] (cell cycle stage: mitosis), 51.2 °C.
